# Where two headings read alike, the source gives them in different places.
# Tests used:
# [1] = target: T1, VEGF165 (VEGF-A isoform 165) (UniProt P15692-4 27-191); assay: EMSA
# [2] = target: T1, VEGF165 (VEGF-A isoform 165); assay: EMSA; remark: listed apart in the source
Binder,binding result [1],binding result [2]
TGTGGGGGTGGACGGGCCGGGTAGA (structured_DNA) [V7t1 dimer (purified SE-HPLC peak 1)],binds,
"TGTGGGGGTGGACGGGCCGGGTAGA (structured_DNA) [V7t1 not-annealed (about 73% dimer, 26% monomer)]",,binds
